How the values were obtained:
Assay in all cases: FRET or BRET
[1] = target: T1, pplss-3HA-hCB1 receptor T465A/S468A (D4) (human, UniProt P21554 1-472, T465A | S468A)
[2] = target: T2, pplss-3HA-hCB1 receptor S462A/S464A/T465A (T) (human, UniProt P21554 1-472, S462A | S464A | T465A)
[3] = target: T3, pplss-3HA-hCB1 receptor S464A/T467A (D3) (human, UniProt P21554 1-472, S464A | T467A)
[4] = target: T4, pplss-3HA-hCB1 receptor S462A/T465A (D2) (human, UniProt P21554 1-472, S462A | T465A)
[5] = target: T5, pplss-3HA-hCB1 receptor S425A/S429A (D1) (human, UniProt P21554 1-472, S425A | S429A)
[6] = target: T6, pplss-3HA-hCB1 receptor, wild type (human, UniProt P21554 1-472)
[7] = target: T1, pplss-3HA-hCB1 receptor T465A/S468A (D4); remark: listed apart in the source
[8] = target: T2, pplss-3HA-hCB1 receptor …; remark: listed apart in the source
[9] = target: T3, pplss-3HA-hCB1 receptor S464A/T467A (D3); remark: listed apart in the source
[10] = target: T4, pplss-3HA-hCB1 receptor S462A/T465A (D2); remark: listed apart in the source
[11] = target: T5, pplss-3HA-hCB1 receptor S425A/S429A (D1); remark: listed apart in the source
[12] = target: T6, pplss-3HA-hCB1 receptor, wild type; remark: listed apart in the source

B1: Nluc-(human)-Arrestin-2-Sp1 (natural protein, UniProt P49407 1-418, looked up)
chain: MGDKGTRVFKKASPNGKLTVYLGKRDFVDHIDLVDPVDGVVLVDPEYLKERRVYVTLTCAFRYGREDLDVLGLTFRKDLFVANVQSFPPAPEDKKPLTRLQERLIKKLGEHAYPFTFEIPPNLPCSVTLQPGPEDTGKACGVDYEVKAFCAENLEEKIHKRNSVRLVIRKVQYAPERPGPQPTAETTRQFLMSDKPLHLEASLDKEIYYHGEPISVNVHVTNNTNKTVKKIKISVRQYADICLFNTAQYKCPVAMEEADDTVAPSSTFCKVYTLTPFLANNREKRGLALDGKLKHEDTNLASSTLLREGANREILGIIVSYKVKVKLVVSRGGLLGDLASSDVAVELPFTLMHPKPKEEPPHREVPENETPVDTNLIELDTNDDDIVFEDFARQRLKGMKDDKEEEEDGTGSPQLNNR
initial rate of translocation [1]: 7.31e-05 ΔBRET ratio per second
steady state (ΔBRET ratio) [1]: 0.022 ΔBRET ratio
translocation half time [1]: 210 s
initial rate of translocation [2]: 3.32e-05 ΔBRET ratio per second
steady state (ΔBRET ratio) [2]: 0.014 ΔBRET ratio
translocation half time [2]: 354 s
initial rate of translocation [3]: 3.06e-05 ΔBRET ratio per second
steady state (ΔBRET ratio) [3]: 0.014 ΔBRET ratio
translocation half time [3]: 354 s
initial rate of translocation [4]: 3.77e-05 ΔBRET ratio per second
steady state (ΔBRET ratio) [4]: 0.012 ΔBRET ratio
translocation half time [4]: 286 s
initial rate of translocation [5]: 5.81e-05 ΔBRET ratio per second
steady state (ΔBRET ratio) [5]: 0.036 ΔBRET ratio
translocation half time [5]: 569 s
initial rate of translocation [6]: 0.000136 ΔBRET ratio per second
steady state (ΔBRET ratio) [6]: 0.036 ΔBRET ratio
translocation half time [6]: 185 s
Emax of net translocation (%WT) [7]: 61.6 %WT
Emax of net translocation (%WT) [8]: 25.6 %WT
Emax of net translocation (%WT) [9]: 32.9 %WT
Emax of net translocation (%WT) [10]: 32.3 %WT
Emax of net translocation (%WT) [11]: 72.3 %WT
Emax of net translocation (%WT) [12]: 100 %WT

From PMC10100024 (British Journal of Pharmacology, 2022)
